Reference: US20160200799A1
Changes are numbered by the printed parent chain.

B1: Group 64 representative clone F083-301, Fab-cp3-type antibody (Fab, V domains shown)
VH: QVQLVQSGAEVKKPGSSVKVSCKASGGIFNSNAISWVRQAPGQGLEWMGGIIGIFGTANYAQKFQGRVTIAADQSTNTVFMELSSLTSEDTAVYFCARSRGYSFGYGTDYFDYWGQGTLVTVSS
VL: DIVMTQSPSTLSASVGDRVTITCRASQSISSWLAWYQQAPGKAPKLLIYEASKLQSGVPSRFSATGSGTEFTLTIASLQPEDFAIYYCQHYEAYPFSFGPGTKLDVK
B2: Group 42 representative clone F083-249, Fab-cp3-type antibody (Fab, V domains shown)
VH: QVQLVQSGSEVKKPGSSVKVSCKASGVTFSSYAISWVRQAPGQGLEWMGGISPMFGTTRYAQKFQGRVTITADESTRTGFMELSSLRSGDTAVYYCARSPTYYPGALDMWGQGTTVTVSS
VL: DVVMTQSPSLLSASVGDRVTITCRASQAIANFVSWFQQKPGEAPKSLIHAASTLQGGVPPRFSGSGYGAVFTLTITNLQPEDFATYFCQQYNSLPFTFGPGTDVEVR
B3: Group 63 representative clone F083-336, Fab-cp3-type antibody (Fab, V domains shown)
VH: QVQLQQSGAEVKQPGSSVKVSCKASGGIFRSNAISWVRQAPGQGLEWMGGIVALFGTANYAQKFQGRVTITADESTSTVYMELSSLRSEDTARYYCARNSGYHISGFYLDYWGQGTLVTVSS
VL: EIVLTQSPSSLSASVGDRVTITCRASQGISNYLAWYQQRPGKVPKLLIYTASTLLSGVPSRFSGGGSGTDYTLTISSLQPEDVATYYCQEYKSVPLTFGPGTKVEIK
B4: Group 51 representative clone F083-302, Fab-cp3-type antibody (Fab, V domains shown)
VH: QVQLVQSGAEVKKPGSSVKVSCEASGATFSSNAFSWVRQAPGQGPEWMGGIITMFRKAEYAQKFQGRVTITAGELGSTAYMEVRSLTFEDTAVYYCARHSGYHLIGYFDSWGQGTLVTVSS
VL: QSVLTQPPSVSAAPGQKVTISCSGTTSNIGNNYVSWYQQLPGAAPKLLIYDNNKRPSGIPDRFSGSKSDTSATLGITGLQTGDEADYYCGTWVSSLSVWVFGGGTKLTVLG
B5: Group 43 representative clone F081-007, Fab-cp3-type antibody (Fab, V domains shown)
VH: QVQLQQSGAEVKKPGSSVKVSCKASGGIFRKNAISWVRQAPGQGLEWMGGISAIFGTANYAQKFQGRVTITADESSNTVYMDLSRLRSEDTAIYYCASHPTYHFDKSGYRFDSWGQGTLVTVSS
VL: B4 VL with T25S, T26S, A43T, D69G, V93D, V98A, W99G
B6: Group 57 representative clone F083-103, Fab-cp3-type antibody (Fab, V domains shown)
VH: QVQLQQSGADVKKAGSSVKVSCKASGRTFGNYAISWVRQAPGQGLEWMGGITPIFGAANYAQKFQGRVTISADLSTRMVYMDLSSLRSDDTAFYYCAGHPTYHYGSAMDYWGQGTLVTVSS
VL: QSVLTQPPSVSAAPGQKVTITCSGSSSNIGNNYVSWYQQLPGTAPKLLISEGSNRPSGIPDRFSGSKSGTSATLGITGLQTGDEATYYCATWDDSLSVVLFGGGTRLTVLS
B7: Group 59 representative clone F083-351, Fab-cp3-type antibody (Fab, V domains shown)
VH: B6 VH with Q5V, T101M
VL: QSVLTQPPSASGTPGQRVSISCFGSRSNVGSSSVNWYQQLPGRAPKLLIQRNDQRPSGVPDRFSGSKSGTSASLAISGLQSDDESTYYCAAWDDSVKSVVFGGGTQLTVLG
B8: Group 80 representative clone F083-373, Fab-cp3-type antibody (Fab, V domains shown)
VH: B6 VH with Q5V, A14P, K19R, R77T, H103Y, A107P
VL: EIVLTQSPSSLSASVGDRVTITCRASQSIATYLNWYQQKPGKAPNLLIYAASNLQSGVPSRFSGSGSGTDFTLTISSLQPEDFATYVCLQSYSATLTFGGGTKVEIK
B9: Group 58 representative clone F083-307, Fab-cp3-type antibody (Fab, V domains shown)
VH: QVQLQQSGADVKKPGSSVKVSCKASGGTFGNYAISWVRQAPGQGLEWMGGITPIFGPANYAQRFQGRVTISADISTRTAYMELSSLRSEDTAIYYCARHPTYYFGSAMEYWGQGTLVTVSS
VL: SYELTQPPSVSVAPGQTATITCGGDRIGTGPVHWYQQRPGRAPVLIIYGSTHRPSGIPERFSGSKSVNTATLSISGVGVGDEADYYCQVWDTSTAQPIVFGGGTKLTVLS
B10: Group 62 representative clone F083-349, Fab-cp3-type antibody (Fab, V domains shown)
VH: QVQLVQSGAEVRKPGSSVKVSCKASGVIFIKFAISWVRQAPGQGLEWMGGIIPMFGTTNYAQKFQGRVTITADGSTNTVYMELSSLTSEDTAVYYCAKEEGYYYGSGPLDSWGQGTLVTVSS
VL: DIVMTQSPDFLSVSLGERVTINCKSSQTVLNRSNNKNYLAWYQKKPGQPPRLLLYWSSTRESGVPDRFSGSGSETDFALTITNLQAEDLAVYFCQQFYDMPVTFGGGTKLEIK
B11: Group 38 representative clone F082-338, Fab-cp3-type antibody (Fab, V domains shown)
VH: QVQLQESGAEVKKPGSSVKVSCKASGGPFRSHAISWVRQAAGQGLEWMGGITAVFGTANYAQKFQGRVTITADESTNIVSMELSSLRSEDTAIYYCARSLGYHTQYNGMDVWGQGTTVTVSS
VL: DVVMTQSPSSVSASVGDRVTITCRASQGISSWLAWYQQKPGKAPKLLIYAASSLQSGVPSRFSGSGSGTDFTLTISSLQPEDFATYYCQQANSFPITFGQGTRLEIK
B12: Group 55 representative clone F083-305, Fab-cp3-type antibody (Fab, V domains shown)
VH: EVQLVESGAEVKKPGSSVKVSCKASGSIFSNYAISWVRQAPGQGLEWMGGIVPMFGTTRFAQKFQGRVTITADESRSTAYMELNNLISEDTAVYYCARAPLIYNWYFDLWGRGTLVTVSS
VL: EIVLTQSPSFVSASVGDRVSITCRASQGISSWLAWYQQKPGKAPRLLIYGASNLQSGVPSRFSGSGSGTDYTLTINSLQPEDFATYYCQQARTFPVTFGQGTKLEIK
B13: Group 56 representative clone F083-318, Fab-cp3-type antibody (Fab, V domains shown)
VH: B12 VH with E6Q, K23Q, S35N, M54I, V68L, S75P, F107Y
VL: B3 VL with R39K, T50A, L55Q, G65S, Y71F, E90K, K92N, V94A, L96H, E105D
B14: Group 36 representative clone F082-243, Fab-PP-type antibody (Fab, V domains shown)
VH: QVQLQQSGAEVKKPGSSVKVSCKASGGIFRKNAISWVRQAPGQGLEWMGGIIAIFGTANYAQKFQGRVTITADDSTNTVYMELTSLRYEDTAVYYCARGPNYYENYFDFWGQGTLVTVSS
VL: EIVLTQSPSSLSASLRDTVTITCRTSQAITNYLAWYQQRPGKAPKLLIYAASVLQSGVPSRFSGSGSGTDFTLTISSLQPEDFATYYCQKYDSAPYTFGQGTKLEIK
B15: Group 2 representative clone F082-220, Fab-PP-type antibody (Fab, V domains shown)
VH: QVQLVQSGAEVKKPGSSVKVSCKASGGIFRSNAVSWVRQAPGQGLEWMGGIIAIFGTPKYAQKFQGRVTITADESTSTVYMELSGLRYEDTAVYYCARGPNYYESYFDYWGQGTLVTVSS
VL: DIVMTQSPPSLSASVGDRVTITCRASQGISNYLAWYQQKPGKAPKLLIFGASTLHSGVSSRFSGSGSGPDFTLTISSLQPEDAATYYCQKYHSAPLTFGGGTKVEMK

What follows are binders tested against Influenza virus A/New Caledonia/20/1999 (H1N1) (Influenza A virus A/New Caledonia/20/1999 (H1N1)) (assay: ELISA on coated viral particles).
With B1 the Binding activity (absorbance at 492 nm) was 1.34.
In the case of B2, the Binding activity (absorbance at 492 nm) is reported as 3.13.
B3 showed a Binding activity (absorbance at 492 nm) of 1.61.
For B4, the Binding activity (absorbance at 492 nm) was 1.92.
With B5 the Binding activity (absorbance at 492 nm) was 2.84.
Work on B6 yielded a Binding activity (absorbance at 492 nm) of 2.43.
B7 was tested, and the Binding activity (absorbance at 492 nm) was 3.21.
In the case of B8, the Binding activity (absorbance at 492 nm) is reported as 1.39.
B9 showed a Binding activity (absorbance at 492 nm) of 3.3.
For B10, the Binding activity (absorbance at 492 nm) was 3.17.
Binder B11 has a Binding activity (absorbance at 492 nm) of 3.01.
B12 gave a Binding activity (absorbance at 492 nm) of 3.07.
In the case of B13, the Binding activity (absorbance at 492 nm) is reported as 3.01.

These binders were tested against Influenza virus A/Panama/2007/1999 (H3N2) (Influenza A virus A/Panama/2007/1999 (H3N2)) (assay: ELISA on coated viral particles).
With B1 the Binding activity (absorbance at 492 nm) was 0.16.
B2 showed a Binding activity (absorbance at 492 nm) of 1.15.
With B3 the Binding activity (absorbance at 492 nm) was 0.15.
B4 gave a Binding activity (absorbance at 492 nm) of 0.23.
Work on B5 yielded a Binding activity (absorbance at 492 nm) of 0.14.
In the case of B6, the Binding activity (absorbance at 492 nm) is reported as 0.16.
For B7, the Binding activity (absorbance at 492 nm) was 0.21.
In the case of B8, the Binding activity (absorbance at 492 nm) is reported as 0.13.
In the case of B9, the Binding activity (absorbance at 492 nm) is reported as 0.19.
Work on B10 yielded a Binding activity (absorbance at 492 nm) of 0.15.
With B11 the Binding activity (absorbance at 492 nm) was 0.13.
B12 gave a Binding activity (absorbance at 492 nm) of 0.15.
Binder B13 has a Binding activity (absorbance at 492 nm) of 0.16.

Each binder was assayed against Influenza virus A/California/7/2009pdm (H1N1pdm) (Influenza A virus A/California/7/2009pdm (H1N1pdm)) (assay: ELISA on coated viral particles).
Binder B1 has a Binding activity (absorbance at 492 nm) of 0.46.
For B2, the Binding activity (absorbance at 492 nm) was 2.38.
Work on B3 yielded a Binding activity (absorbance at 492 nm) of 1.56.
Binder B4 has a Binding activity (absorbance at 492 nm) of 1.55.
B5 gave a Binding activity (absorbance at 492 nm) of 2.33.
Work on B6 yielded a Binding activity (absorbance at 492 nm) of 1.82.
B7 gave a Binding activity (absorbance at 492 nm) of 2.62.
Binder B8 has a Binding activity (absorbance at 492 nm) of 0.17.
B9 was tested, and the Binding activity (absorbance at 492 nm) was 2.37.
B10 gave a Binding activity (absorbance at 492 nm) of 2.79.
B11 showed a Binding activity (absorbance at 492 nm) of 2.82.
B12 showed a Binding activity (absorbance at 492 nm) of 1.29.
B13 was tested, and the Binding activity (absorbance at 492 nm) was 0.71.

What follows are binders tested against Influenza virus A/Brisbane/59/2007 (H1N1) (Influenza A virus A/Brisbane/59/2007 (H1N1)) (assay: ELISA on coated viral particles).
For B1, the Binding activity (absorbance at 492 nm) was 1.44.
With B2 the Binding activity (absorbance at 492 nm) was 3.02.
Work on B3 yielded a Binding activity (absorbance at 492 nm) of 1.89.
In the case of B4, the Binding activity (absorbance at 492 nm) is reported as 2.
Work on B5 yielded a Binding activity (absorbance at 492 nm) of 2.72.
B6 was tested, and the Binding activity (absorbance at 492 nm) was 2.39.
B7 showed a Binding activity (absorbance at 492 nm) of 3.09.
Work on B8 yielded a Binding activity (absorbance at 492 nm) of 1.31.
Binder B9 has a Binding activity (absorbance at 492 nm) of 3.04.
For B10, the Binding activity (absorbance at 492 nm) was 2.93.
In the case of B11, the Binding activity (absorbance at 492 nm) is reported as 2.93.
For B12, the Binding activity (absorbance at 492 nm) was 2.88.
In the case of B13, the Binding activity (absorbance at 492 nm) is reported as 2.85.

What follows are binders tested against Influenza virus A/Panama/2007/1999 (H3N2) (Influenza A virus A/Panama/2007/1999 (H3N2)) (assay: cell-based or functional assay).
In the case of B14, the Neutralizing activity (%) at 100 µg/ml is reported as 7.5% and the Neutralizing activity (%) at 250 µg/ml is reported as -2.7%.
B15 showed a Neutralizing activity (%) at 100 µg/ml of 3.4% and a Neutralizing activity (%) at 250 µg/ml of 34.2%.

These binders were tested against Influenza virus A/Indonesia/5/2005/PR8-IBCDC-RG2 (H5N1) (Influenza A virus A/Indonesia/5/2005/PR8-IBCDC-RG2 (H5N1)) (assay: cell-based or functional assay).
In the case of B14, the Neutralizing activity (%) at 100 µg/ml is reported as 50.6% and the Neutralizing activity (%) at 250 µg/ml is reported as 52.9%.
B15 was tested, and the Neutralizing activity (%) at 100 µg/ml was 90.6% and the Neutralizing activity (%) at 250 µg/ml was 97.1%.

Each binder was assayed against Influenza virus A/California/7/2009pdm (H1N1pdm) (Influenza A virus A/California/7/2009pdm (H1N1pdm)) (assay: cell-based or functional assay).
Work on B14 yielded an HI activity greater than 160 µg/mL.
For B15, the HI activity was greater than 160 µg/mL.

Each binder was assayed against Influenza virus A/Brisbane/59/2007 (H1N1) (Influenza A virus A/Brisbane/59/2007 (H1N1)) (assay: cell-based or functional assay).
For B14, the HI activity was greater than 160 µg/mL, the Neutralizing activity (%) at 100 µg/ml was 84.2% and the Neutralizing activity (%) at 250 µg/ml was 94.1%.
B15 showed an HI activity greater than 160 µg/mL, a Neutralizing activity (%) at 100 µg/ml of 100% and a Neutralizing activity (%) at 250 µg/ml of 100%.

The binders below were run against Influenza virus A/Suita/1/2009pdm (H1N1 2009 pandemic) (Influenza A virus A/Suita/1/2009pdm (H1N1pdm)) (assay: cell-based or functional assay).
B14 was tested, and the Neutralizing activity (%) at 100 µg/ml was 97.7% and the Neutralizing activity (%) at 250 µg/ml was 85.9%.
Binder B15 has a Neutralizing activity (%) at 100 µg/ml of 85.3% and a Neutralizing activity (%) at 250 µg/ml of 97.7%.
